In this series the test system is Saccharomyces cerevisiae. Nature of the series: protein stability index of tFT-peptide fusion (C-terminal peptide) (PSI (0-1 scale)); higher = more stable (slower turnover). Conditions: temperature: 30 C. On the procedure:
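MPS profiling in S. cerevisiae of the yeast C-terminome library: the last 12 aa of each annotated ORF are fused to the C-terminus of a sfGFP-mCherry timer, after a GGGS linker. Cells are FACS-sorted into 8 mCherry/sfGFP bins and deep-sequenced. PSI runs from 0 (unstable) to 1 (stable); wild type and das1Δ backgrounds, two technical replicates each.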

The mark [1] stands for this setting: genetic background: das1 deletion.

± gives the standard deviation of the averaged measurements.

The sequence ELLQSFSLVLTL [YKL153W C-terminal 12 aa] had a protein stability index under setting [1] of 0.64297 ± 0.00021 and a protein stability index (genetic background: wild type) of 0.632 ± 0.024.

With ELPAQKSTVISE [GEP7 C-terminal 12 aa], the protein stability index by setting is: under setting [1], 0.733 ± 0.039; (genetic background: wild type) 0.702 ± 0.039.

The sequence ELQDALNTELLF [VAC17 C-terminal 12 aa] came in with a protein stability index under setting [1] of 0.7157 ± 0.0042 and a protein stability index (genetic background: wild type) of 0.699 ± 0.0099.

Turning to ELTFDVKLVSMK [FPR4 C-terminal 12 aa], the protein stability index runs as follows: under setting [1], 0.686 ± 0.0071; (genetic background: wild type) 0.687 ± 0.034.

In the case of ENLRLKLKNFLR [MSH5 C-terminal 12 aa], the protein stability index came to 0.683 ± 0.0095 under setting [1] and 0.688 ± 0.022 (genetic background: wild type).

With ENRTMFLSKGKS [YPR172W C-terminal 12 aa], the protein stability index by setting is: under setting [1], 0.701 ± 0.024; (genetic background: wild type) 0.667 ± 0.016.

Take EPKYVDEDDWSD [CEG1 C-terminal 12 aa]: the protein stability index turned out to be 0.69393 ± 0.00048 under setting [1] and 0.68 ± 0.02 (genetic background: wild type).

As to EQFTRDFGQEGN [VPS4 C-terminal 12 aa], the protein stability index reads like this: under setting [1], 0.7187 ± 0.0015; (genetic background: wild type) 0.671 ± 0.016.

As for EQLGHASKRHKP [RPP1 C-terminal 12 aa], the protein stability index by setting is: under setting [1], 0.694 ± 0.011; (genetic background: wild type) 0.689 ± 0.0075.

Regarding ERGMYRYYSLKA [LUG1 C-terminal 12 aa], the protein stability index was found to be 0.623 ± 0.028 under setting [1] and 0.621 ± 0.015 (genetic background: wild type).

As for ERLRFYKDTFTL [RRI1 C-terminal 12 aa], the protein stability index by setting is: under setting [1], 0.726 ± 0.0089; (genetic background: wild type) 0.653 ± 0.011.

Regarding ERRLSDLQQYHI [TMA10 C-terminal 12 aa], the protein stability index reads like this: under setting [1], 0.6982 ± 0.0017; (genetic background: wild type) 0.683 ± 0.02.

Consider ERVKIGVQFYEE [RTG2 C-terminal 12 aa], for which the protein stability index by setting is: under setting [1], 0.708 ± 0.013; (genetic background: wild type) 0.736 ± 0.042.

Turning to ESDDDMGFGLFD [RPP0 C-terminal 12 aa], the protein stability index turned out to be 0.7176 ± 0.002 under setting [1] and 0.717 ± 0.016 (genetic background: wild type).

As for ESHQDKTEEDIH [OKP1 C-terminal 12 aa], the protein stability index is, setting by setting: under setting [1], 0.69113 ± 0.00011; (genetic background: wild type) 0.726 ± 0.035.

For the sequence ESISYLFKNYPL [PRS3 C-terminal 12 aa], the protein stability index amounted to 0.717 ± 0.015 under setting [1] and 0.6937 ± 0.0036 (genetic background: wild type).

Consider ESTTDAESKGSK [MRPL11 C-terminal 12 aa], for which the protein stability index runs as follows: under setting [1], 0.676 ± 0.015; (genetic background: wild type) 0.706 ± 0.11.

For ETIWTEWHNLKK [DIG2 C-terminal 12 aa], the protein stability index under setting [1] came out at 0.726 ± 0.059 and the protein stability index (genetic background: wild type) was 0.686 ± 0.0099.

“ETRASCLLSRAF [YJL052C-A C-terminal 12 aa]”: the protein stability index is, setting by setting: under setting [1], 0.6962 ± 0.0034; (genetic background: wild type) 0.698 ± 0.015.

Regarding EVYLQAIDLIDC [PIR3 C-terminal 12 aa], the protein stability index under setting [1] is 0.6774 ± 0.0063 and the protein stability index (genetic background: wild type) turned out to be 0.6614 ± 0.005.

As to EWAEENADNVEW [RPS0A C-terminal 12 aa], the protein stability index under setting [1] stood at 0.7363 ± 0.0068 and the protein stability index (genetic background: wild type) is 0.728 ± 0.028.

For the sequence EWFYEKFLGNIF [DIP5 C-terminal 12 aa], the protein stability index runs as follows: under setting [1], 0.747 ± 0.013; (genetic background: wild type) 0.702 ± 0.014.

Consider EWVVPEHMLGPK [FUM1 C-terminal 12 aa], for which the protein stability index by setting is: under setting [1], 0.741 ± 0.0091; (genetic background: wild type) 0.739 ± 0.041.

In the case of EYGGYGEYGNGS [RTG1 C-terminal 12 aa], the protein stability index was 0.6949 ± 0.0018 under setting [1] and 0.674 ± 0.0096 (genetic background: wild type).

EYTDFMSWMQDN [YER186C C-terminal 12 aa]: the protein stability index is, setting by setting: under setting [1], 0.74 ± 0.01; (genetic background: wild type) 0.646 ± 0.15.

Consider “FAAPIKPSTRAG [YLR347W-A C-terminal 12 aa]”, for which the protein stability index was found to be 0.6876 ± 0.0016 under setting [1] and 0.71 ± 0.0086 (genetic background: wild type).

As to FAQNTNKDVELN [NGG1 C-terminal 12 aa], the protein stability index under setting [1] came out at 0.682 ± 0.028 and the protein stability index (genetic background: wild type) is 0.666 ± 0.046.

Take FASNKKVTASLR [AZR1 C-terminal 12 aa]: the protein stability index runs as follows: under setting [1], 0.696 ± 0.013; (genetic background: wild type) 0.6868 ± 0.00086.

As for FDELVRKYDTSN [SEC28 C-terminal 12 aa], the protein stability index stood at 0.718 ± 0.017 under setting [1] and 0.665 ± 0.0076 (genetic background: wild type).

In the case of FEFEFFESCYNA [PET18 C-terminal 12 aa], the protein stability index stood at 0.744 ± 0.019 under setting [1] and 0.744 ± 0.038 (genetic background: wild type).

Consider FGIWNTDMSVWS [YBL081W C-terminal 12 aa], for which the protein stability index reads like this: under setting [1], 0.699 ± 0.017; (genetic background: wild type) 0.7253 ± 0.0045.

With FGKYLPLNYPSE [ASG1 C-terminal 12 aa], the protein stability index is, setting by setting: under setting [1], 0.7167 ± 0.0015; (genetic background: wild type) 0.671 ± 0.015.

FGNDMVINFETD [UTP22 C-terminal 12 aa]: the protein stability index reads like this: under setting [1], 0.7438 ± 0.0026; (genetic background: wild type) 0.731 ± 0.12.

Consider FHLNAKTRESEI [YDL162C C-terminal 12 aa], for which the protein stability index is, setting by setting: under setting [1], 0.702 ± 0.012; (genetic background: wild type) 0.67952 ± 0.00014.

For FIHDVFFVYFRF [YDL094C C-terminal 12 aa], the protein stability index reads like this: under setting [1], 0.176 ± 0.0076; (genetic background: wild type) 0.17 ± 0.006.

Regarding FIKLSLASSFSN [ISF1 C-terminal 12 aa], the protein stability index under setting [1] stood at 0.7094 ± 0.0028 and the protein stability index (genetic background: wild type) worked out at 0.661 ± 0.022.

The sequence FINKIYHQKVNL [TMN3 C-terminal 12 aa] showed a protein stability index under setting [1] of 0.707 ± 0.0078 and a protein stability index (genetic background: wild type) of 0.781 ± 0.004.

In the case of FKAKFRKVKINA [YKR015C C-terminal 12 aa], the protein stability index worked out at 0.6339 ± 0.0053 under setting [1] and 0.134 ± 0.0025 (genetic background: wild type).

With FKIFCNCIQSLA [YPL199C C-terminal 12 aa], the protein stability index turned out to be 0.341 ± 0.0075 under setting [1] and 0.323 ± 0.009 (genetic background: wild type).

For the sequence “FKSTPIIYSNVI [YER006C-A C-terminal 12 aa]”, the protein stability index by setting is: under setting [1], 0.724 ± 0.027; (genetic background: wild type) 0.642 ± 0.0074.

On to “FLEIVVPCHCTT [YJL077W-A C-terminal 12 aa]”, for which the protein stability index by setting is: under setting [1], 0.539 ± 0.0037; (genetic background: wild type) 0.56 ± 0.021.

“FLIWRKKVSRNK [YOR329W-A C-terminal 12 aa]” had a protein stability index under setting [1] of 0.73 ± 0.054 and a protein stability index (genetic background: wild type) of 0.727 ± 0.11.

On to FLNIENPENQSE [RCO1 C-terminal 12 aa], for which the protein stability index is, setting by setting: under setting [1], 0.687 ± 0.01; (genetic background: wild type) 0.674 ± 0.018.

Turning to FLSMTYASLVNK [YLR294C C-terminal 12 aa], the protein stability index was 0.713 ± 0.022 under setting [1] and 0.706 ± 0.062 (genetic background: wild type).

Consider FLVLKIIKALLW [MTC4 C-terminal 12 aa], for which the protein stability index by setting is: under setting [1], 0.526 ± 0.013; (genetic background: wild type) 0.523 ± 0.026.

For the sequence FRGKLFLDSITD [MLC2 C-terminal 12 aa], the protein stability index is, setting by setting: under setting [1], 0.724 ± 0.0085; (genetic background: wild type) 0.73 ± 0.034.

FRNYRGHYRGRK [SGS1 C-terminal 12 aa]: the protein stability index by setting is: under setting [1], 0.705 ± 0.03; (genetic background: wild type) 0.685 ± 0.039.

Turning to “FSALVLRGVRGE [YBR196C-B C-terminal 12 aa]”, the protein stability index reads like this: under setting [1], 0.698 ± 0.014; (genetic background: wild type) 0.6769 ± 0.0067.

For FSDFLDSNRITQ [LDB19 C-terminal 12 aa], the protein stability index under setting [1] came out at 0.72756 ± 0.00057 and the protein stability index (genetic background: wild type) worked out at 0.723 ± 0.017.

With FSDWKNNNGPHK [IBA57 C-terminal 12 aa], the protein stability index is, setting by setting: under setting [1], 0.701 ± 0.02; (genetic background: wild type) 0.71 ± 0.062.

As to FSTIDGSIKDIK [FDO1 C-terminal 12 aa], the protein stability index reads like this: under setting [1], 0.668 ± 0.023; (genetic background: wild type) 0.6865 ± 0.0054.

Take FTGGDILPPEFN [SPS18 C-terminal 12 aa]: the protein stability index was 0.7639 ± 0.0048 under setting [1] and 0.739 ± 0.015 (genetic background: wild type).

Take FTHFTSSKDRKD [SIT1 C-terminal 12 aa]: the protein stability index runs as follows: under setting [1], 0.711 ± 0.026; (genetic background: wild type) 0.699 ± 0.021.

For the sequence FVAKEIADDSKK [TIM12 C-terminal 12 aa], the protein stability index reads like this: under setting [1], 0.684 ± 0.016; (genetic background: wild type) 0.709 ± 0.03.

“GAAVAAGVAFLF [YDR524C-B C-terminal 12 aa]”: the protein stability index runs as follows: under setting [1], 0.717 ± 0.018; (genetic background: wild type) 0.717 ± 0.044.

With GAAVRLTGSDRV [RPN7 C-terminal 12 aa], the protein stability index runs as follows: under setting [1], 0.685 ± 0.007; (genetic background: wild type) 0.679 ± 0.035.

Consider GAMSEGKTGQLN [YLR036C C-terminal 12 aa], for which the protein stability index was determined as 0.699 ± 0.02 under setting [1] and 0.6988 ± 0.0014 (genetic background: wild type).

Regarding GARPPKNEARII [YBL036C C-terminal 12 aa], the protein stability index is, setting by setting: under setting [1], 0.694 ± 0.011; (genetic background: wild type) 0.677 ± 0.038.

For GCDLDISYAKRL [HRB1 C-terminal 12 aa], the protein stability index amounted to 0.7155 ± 0.0028 under setting [1] and 0.695 ± 0.035 (genetic background: wild type).

The sequence GCGCNCPEMFDA [MTC5 C-terminal 12 aa] registered a protein stability index under setting [1] of 0.6906 ± 0.0026 and a protein stability index (genetic background: wild type) of 0.695 ± 0.029.

For GDEEDPNEEAAF [RPC31 C-terminal 12 aa], the protein stability index under setting [1] worked out at 0.692 ± 0.01 and the protein stability index (genetic background: wild type) worked out at 0.673 ± 0.027.

Take GDSDNVVKRLRK [URB1 C-terminal 12 aa]: the protein stability index under setting [1] is 0.686 ± 0.018 and the protein stability index (genetic background: wild type) was found to be 0.707 ± 0.016.

On to GECVLTKNNKFT [ATG21 C-terminal 12 aa], for which the protein stability index is 0.672 ± 0.034 under setting [1] and 0.652 ± 0.026 (genetic background: wild type).

Take GFIRGSNKFAEV [SMC3 C-terminal 12 aa]: the protein stability index reads like this: under setting [1], 0.6866 ± 0.0044; (genetic background: wild type) 0.6658 ± 0.0058.

In the case of GFQTGSASKASA [RPL37A C-terminal 12 aa], the protein stability index was 0.71864 ± 0.00033 under setting [1] and 0.712 ± 0.019 (genetic background: wild type).

Take GIVYDFHKSDMY [LSM1 C-terminal 12 aa]: the protein stability index under setting [1] stood at 0.683 ± 0.036 and the protein stability index (genetic background: wild type) amounted to 0.696 ± 0.043.

As for GKDITDQPCIDL [SSP2 C-terminal 12 aa], the protein stability index under setting [1] was found to be 0.7054 ± 0.00083 and the protein stability index (genetic background: wild type) was 0.725 ± 0.058.
